Where a chain is given by its changes, count along the chain named.

Test [1] addresses T1, canine TNFα (canine, UniProt P51742 77-233, biotinylated (EZ-Link NHS-LC-biotin) in Example 2).
T1 construct: Bought recombinant protein; also called cTNFα; canine TNF-alpha
In words: BLI (biosensor Octet), format not stated. Background: In BLI a coated tip is dipped into the sample, and binding shifts an interference pattern.

Test [2] addresses T1, canine TNFα. In words: BLI (ForteBio), biotinylated TNFα on streptavidin tips, antibody in solution, 1:1 model. The procedure: (§1) The binding analysis was performed as follows. Briefly, canine and human TNFα were biotinylated. The free unreacted biotin was removed from biotinylated TNFα by extensive dialysis. Biotinylated TNFα was captured on streptavidin sensor tips. The association of five different concentrations (150, 50, 17, 5.6, and 1.9 nM) of TNFα antibody and TNFα (human and canine, in different tests) was monitored for ninety seconds. Dissociation was monitored for 600 seconds. A buffer only blank curve was subtracted to correct for any drift. The data were fit to a 1:1 binding model using ForteBio™ data analysis software to determine the kon (association rate constant), koff (dissociation rate constant) and the KD (dissociation constant). […] The buffer for dilutions and all binding steps was: 200 mM phosphate, 150 mM NaCl, 0.02% Tween-20, 0.05% sodium azide, and 0.1 mg BSA, pH7.4.

In another test the target is T2, human TNFα (human, UniProt P01375 77-233, biotinylated (EZ-Link NHS-LC-biotin) in Example 2).
T2 construct: Bought recombinant protein
T2 sequence (P01375 77-233 limits assumed): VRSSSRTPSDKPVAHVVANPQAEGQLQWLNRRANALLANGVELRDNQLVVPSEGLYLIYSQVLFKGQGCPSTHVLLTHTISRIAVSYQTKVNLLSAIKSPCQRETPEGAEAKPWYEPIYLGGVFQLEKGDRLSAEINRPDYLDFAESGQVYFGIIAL
Described as above. The procedure:
as §1

T1 sequence (P51742 77-233 limits assumed): as the sequence (P01375 77-233 limits assumed) above, with R2K, Q21E, N30S, R44T, V49I, E53D, I83F, A109T, R138L, D140N counted along it

B1: bispecific molecule comprising SEQ ID NO: 77 and SEQ ID NO: 81 (anti-NGF + Fc IgGB (FcRn long-acting Q to Y, C1q-, CD16-) + anti-TNF ScFv) (bispecific antibody)
light: EIVMTQSPGSLAGSAGESVSINCRASEDIYNALAWYQQKPGERPKLLIYNTDTLHTGVPARFSSSGSGTDFTLTINNLQAEDVGDYFCQHYFGYPRTFGAGTKVELKRNDAQPAVYLFQPSPDQLHTGSASVVCLLNSFYPKDINVKWKVDGVIQDTGIQESVTEQDKDSTYSLSSTLTMSSTEYLSHELYSCEITHKSLPSTLIKSFQRSECQRVD
heavy: not shown
notes: Expressed in mammalian cells, purified on Protein A; also called bispecific anti-canine TNF and anti-canine NGF molecule
In turn, B1 had a Kd with canine TNFα [1] of 0.838 nM.

B2: KBA v1 (caninized TNFα D2E7 antibody: KBA VL v1 and canine kappa light constant region; caninized variable heavy chain of D2E7 and canine IgG-B constant region) (antibody, V domains shown)
VH: EVQLVESGGDLVKPGGSLRLSCVASGFTFDDYAMHWVRQAPGKGLQWVSAITWNSGHIDYADAVKGRFTISRDNAKNTLYLQMNSLRAEDTAVYYCAKVSYLSTASSLDYWGQGTLVTVSS
VL: DIVMTQTPLSLSASPGEPVSISCRASQGIRNYLAWYLQKPGQSPRLLIYAASTLQSGVPDRFSGSGSGTDFTLRIGRLEAEDAAIYYCQRYNRAPYTFGQGTKVEIKR
notes: Full light and heavy chains without leader; expressed in CHO cells, purified on Protein A; also called KIND-509
In the test with canine TNFα [2], B2 gave a Kd of 0.0988 nM, a koff of 8.28e-05 s⁻¹ and a kon of 839000 M⁻¹ s⁻¹. In addition, in the test with human TNFα, the Kd is 0.0207 nM, the koff worked out at 1.53e-05 s⁻¹ and the kon was 741000 M⁻¹ s⁻¹.

B3: KBA v2 (caninized TNFα D2E7 antibody: KBA VL v2 and canine kappa light constant region; caninized variable heavy chain of D2E7 and canine IgG-B constant region) (antibody, V domains shown)
VH: B2 VH
VL: B2 VL with L9P, Y36F, L37R, R45Q, P59S, G76S, E81D, I85V
notes: Full light and heavy chains without leader; expressed in CHO cells, purified on Protein A
Turning to B3, in the test with canine TNFα [2], binding was put at a Kd of 0.303 nM, the dissociation rate constant (koff) was found to be 0.000216 s⁻¹ and the kon was 713000 M⁻¹ s⁻¹. Moreover, in the test with human TNFα, the Kd is 0.269 nM, the koff turned out to be 0.00015 s⁻¹ and the kon turned out to be 575000 M⁻¹ s⁻¹.

One may read the Kd as the equilibrium constant for the complex coming apart. A word on the koff: it is the first-order rate constant of dissociation. High values mean a short-lived complex, low ones a long-lived complex. Broadly, the kon is the rate constant with which the complex forms. Low readings indicate slower complex formation, high ones faster complex formation.

The values above are taken from patent publication US20240101715A1 (KINDRED BIOSCIENCES, published 2024).
